B1: Beta-taxilin (Homo sapiens), Q8N3L3 (parent)
chain: MEANHSEQLSAERQSTPPGDSSSLPSHNGLEKEDGQDSPTPVQPPEKEASVHPDISEELNRQLEDIINTYGSAASTAGKEGSARASEQPENAESPDNEDGDCEETTEEAGREPVASGEPPTVKEPVSNKEQKLEKKILKGLGKEANLLMQNLNKLQTPEEKFDFLFKKYAELLDEHRTEQKKLKLLQKKQVQIQKEKDQLQGEHSRAILARSKLESLCRELQRHNKTLKEEALQRAREEEEKRKEITSHFQSTLTDIQGQIEQQSERNMKLCQENTELAEKLKSIIDQYELREEHLDKIFKHRELQQKLVDAKLEQAQEMMKEAEERHKREKEYLLNQAAEWKLQAKVLKEQETVLQAQLTLYSGRFEEFQSTLTKSNEVFATFKQEMDKTTKKMKKLEKDTATWKARFENCNKALLDMIEEKALRAKEYECFVMKIGRLENLCRALQEERNELHKKIRDAEISEKDDQSQHNSDEEPESNVSVDQEIDAEEVNSVQTAVKNLATAFMIIHHPESTPHQSKETQPEIGSSQESADAALKEPEQPPLIPSRDSESPLPPLTPQAEAEGGSDAEPPSKASNSPAGLGAETQCEGLPVGAQADQASWKPEAEASGQAPQAPTEASLQKMEADVPAPACAAEEHVAAMVPACEPSRQPPRAAAEELPVGASAGPQPRNVADTNLEGVD
partner: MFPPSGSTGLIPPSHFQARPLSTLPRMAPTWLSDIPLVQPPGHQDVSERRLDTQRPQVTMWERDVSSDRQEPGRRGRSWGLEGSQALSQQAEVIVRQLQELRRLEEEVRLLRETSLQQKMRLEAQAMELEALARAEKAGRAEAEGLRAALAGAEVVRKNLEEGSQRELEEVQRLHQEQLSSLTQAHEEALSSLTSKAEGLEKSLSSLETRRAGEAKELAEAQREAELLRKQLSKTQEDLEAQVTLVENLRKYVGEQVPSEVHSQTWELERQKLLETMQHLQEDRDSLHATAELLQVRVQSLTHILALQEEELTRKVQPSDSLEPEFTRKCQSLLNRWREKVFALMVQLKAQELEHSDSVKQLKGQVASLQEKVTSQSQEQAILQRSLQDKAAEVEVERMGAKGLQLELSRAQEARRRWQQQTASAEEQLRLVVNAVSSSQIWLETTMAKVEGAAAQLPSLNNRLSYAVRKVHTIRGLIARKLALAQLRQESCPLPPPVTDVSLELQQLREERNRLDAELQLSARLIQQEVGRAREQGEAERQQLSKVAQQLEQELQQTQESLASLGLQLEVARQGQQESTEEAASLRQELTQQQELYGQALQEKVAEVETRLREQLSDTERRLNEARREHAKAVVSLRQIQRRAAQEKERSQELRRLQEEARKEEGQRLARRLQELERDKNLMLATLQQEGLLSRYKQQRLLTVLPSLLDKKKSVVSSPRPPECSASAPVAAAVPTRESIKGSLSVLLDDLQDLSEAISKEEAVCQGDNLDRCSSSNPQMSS
B2: Annexin A10 (Homo sapiens), Q9UJ72 (parent)
chain: MFCGDYVQGTIFPAPNFNPIMDAQMLGGALQGFDCDKDMLINILTQRCNAQRMMIAEAYQSMYGRDLIGDMREQLSDHFKDVMAGLMYPPPLYDAHELWHAMKGVGTDENCLIEILASRTNGEIFQMREAYCLQYSNNLQEDIYSETSGHFRDTLMNLVQGTREEGYTDPAMAAQDAMVLWEACQQKTGEHKTMLQMILCNKSYQQLRLVFQEFQNISGQDMVDAINECYDGYFQELLVAIVLCVRDKPAYFAYRLYSAIHDFGFHNKTVIRILIARSEIDLLTIRKRYKERYGKSLFHDIRNFASGHYKKALLAICAGDAEDY
partner: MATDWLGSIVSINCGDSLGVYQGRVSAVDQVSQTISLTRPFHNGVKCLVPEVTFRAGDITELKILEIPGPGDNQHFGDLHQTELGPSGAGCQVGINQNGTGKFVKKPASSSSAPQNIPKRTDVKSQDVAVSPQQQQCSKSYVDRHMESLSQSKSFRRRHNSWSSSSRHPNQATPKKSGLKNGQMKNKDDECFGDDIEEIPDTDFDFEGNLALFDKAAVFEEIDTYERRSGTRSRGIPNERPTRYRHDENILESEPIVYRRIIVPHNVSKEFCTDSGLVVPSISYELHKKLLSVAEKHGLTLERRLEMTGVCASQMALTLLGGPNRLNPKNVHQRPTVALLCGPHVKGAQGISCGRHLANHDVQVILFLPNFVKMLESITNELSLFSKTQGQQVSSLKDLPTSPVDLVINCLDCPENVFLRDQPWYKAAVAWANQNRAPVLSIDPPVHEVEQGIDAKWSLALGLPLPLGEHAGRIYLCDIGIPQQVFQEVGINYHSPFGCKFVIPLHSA
B3: Tuftelin-interacting protein 11 (Homo sapiens), Q9UBB9 (parent)
chain: MSLSHLYRDGEGRIDDDDDERENFEITDWDLQNEFNPNRQRHWQTKEEATYGVWAERDSDDERPSFGGKRARDYSAPVNFISAGLKKGAAEEAELEDSDDEEKPVKQDDFPKDFGPRKLKTGGNFKPSQKGFAGGTKSFMDFGSWERHTKGIGQKLLQKMGYVPGRGLGKNAQGIINPIEAKQRKGKGAVGAYGSERTTQSMQDFPVVDSEEEAEEEFQKELSQWRKDPSGSKKKPKYSYKTVEELKAKGRISKKLTAPQKELSQVKVIDMTGREQKVYYSYSQISHKHNVPDDGLPLQSQQLPQSGKEAKAPGFALPELEHNLQLLIDLTEQEIIQNDRQLQYERDMVVNLFHELEKMTEVLDHEERVISNLSKVLEMVEECERRMQPDCSNPLTLDECARIFETLQDKYYEEYRMSDRVDLAVAIVYPLMKEYFKEWDPLKDCTYGTEIISKWKSLLENDQLLSHGGQDLSADAFHRLIWEVWMPFVRNIVTQWQPRNCDPMVDFLDSWVHIIPVWILDNILDQLIFPKLQKEVENWNPLTDTVPIHSWIHPWLPLMQARLEPLYSPIRSKLSSALQKWHPSDSSAKLILQPWKDVFTPGSWEAFMVKNIVPKLGMCLGELVINPHQQHMDAFYWVIDWEGMISVSSLVGLLEKHFFPKWLQVLCSWLSNSPNYEEITKWYLGWKSMFSDQVLAHPSVKDKFNEALDIMNRAVSSNVGAYMQPGARENIAYLTHTERRKDFQYEAMQERREAENMAQRGIGVAASSVPMNFKDLIETKAEEHNIVFMPVIGKRHEGKQLYTFGRIVIYIDRGVVFVQGEKTWVPTSLQSLIDMAK
partner: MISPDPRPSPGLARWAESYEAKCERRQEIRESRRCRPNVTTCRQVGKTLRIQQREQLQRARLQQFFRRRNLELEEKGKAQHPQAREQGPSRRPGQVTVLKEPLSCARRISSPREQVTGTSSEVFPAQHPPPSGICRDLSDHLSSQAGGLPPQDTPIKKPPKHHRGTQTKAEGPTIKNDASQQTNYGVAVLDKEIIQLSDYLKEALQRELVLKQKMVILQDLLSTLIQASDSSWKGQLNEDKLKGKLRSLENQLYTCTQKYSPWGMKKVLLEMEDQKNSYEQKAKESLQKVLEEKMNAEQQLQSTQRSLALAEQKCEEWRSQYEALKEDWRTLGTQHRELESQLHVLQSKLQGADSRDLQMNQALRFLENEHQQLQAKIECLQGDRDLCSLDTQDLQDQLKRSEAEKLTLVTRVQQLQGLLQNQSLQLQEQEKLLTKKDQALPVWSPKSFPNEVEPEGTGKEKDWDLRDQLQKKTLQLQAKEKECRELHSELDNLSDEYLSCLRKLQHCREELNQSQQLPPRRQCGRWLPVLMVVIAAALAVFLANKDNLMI
B4: Protein DDI1 homolog 1 (Homo sapiens), Q8WTU0 (parent)
chain: MLITVYCVRRDLSEVTFSLQVSPDFELRNFKVLCEAESRVPVEEIQIIHMERLLIEDHCSLGSYGLKDGDIVVLLQKDNVGPRAPGRAPNQPRVDFSGIAVPGTSSSRPQHPGQQQQRTPAAQRSQGLASGEKVAGLQGLGSPALIRSMLLSNPHDLSLLKERNPPLAEALLSGSLETFSQVLMEQQREKALREQERLRLYTADPLDREAQAKIEEEIRQQNIEENMNIAIEEAPESFGQVTMLYINCKVNGHPLKAFVDSGAQMTIMSQACAERCNIMRLVDRRWAGVAKGVGTQRIIGRVHLAQIQIEGDFLQCSFSILEDQPMDMLLGLDMLRRHQCSIDLKKNVLVIGTTGTQTYFLPEGELPLCSRMVSGQDESSDKEITHSVMDSGRKEH
partner: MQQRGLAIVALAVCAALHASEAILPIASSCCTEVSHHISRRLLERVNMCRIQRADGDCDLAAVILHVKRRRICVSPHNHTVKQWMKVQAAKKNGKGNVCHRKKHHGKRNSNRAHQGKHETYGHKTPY

Variants of: B1
Settings: with cchcr_human CCHCR1, Q8TD31

| Variant | effect of a mutation on the interaction |
| --- | --- |
| I527T | with no effect |

Variants of: B2
Settings: with edc3_human EDC3, Q96F86

| effect of a mutation on the interaction | Variant |
| --- | --- |
| with no effect | M71L |
| disrupting interaction strength | M62T |
| with no effect | F234S |

Variants of: B3
Settings: with TRAF3IP3, Q9Y228

| effect of a mutation on the interaction | Variant |
| --- | --- |
| with no effect | M140V |

Variants of: B4
Settings: with ccl28_human CCL28, Q9NRJ3

| Variant | effect of a mutation on the interaction |
| --- | --- |
| S63A | with no effect |
| R87C | with no effect |
| R208G | disrupting interaction strength |
| D323N | with no effect |

Continued, values first:

| effect of a mutation on the interaction | Variant |
| --- | --- |
| with no effect | G136S |
| with no effect | N228T |

Reference: IntAct's records for PubMed 31515488
